Three molecules from US20050053973A1 (published 2005) can be followed below.

The target of one test is human IgE (human, UniProt P01854 1-428). Briefly: Biacore, human IgE coupled to a CM5 chip by NHS/EDC, sample protein in flow. From the text:
Human IgE was immobilized to a CM5 chip (BiaCore) using standard NHS/EDC methods. Sample proteins were dialyzed into HBS buffer overnight, and the dialysis buffer was used as a running buffer for the experiment. Sample proteins were run successively over IgE or ethanolamine coated flow cells, and the data analyzed using the BiaEvaluation software package.

Another test has as its target CD28 on monkey PBMC (monkey). Briefly: cell-based or functional assay.
The target of the next test is T1, human serum albumin (human, UniProt P02768 25-609).
T1 construct: also called HSA; HAS
The experiment in a line: ELISA, 0.5 µg HSA per well, expression lysate, anti-HA-HRP, signal equal to or better than the anti-HSA trimer. A general note: An ELISA detects its analyte on a solid surface through an enzyme-linked reagent.

By Kd is commonly meant the constant that tells how readily two partners part at equilibrium.

human IgE, sequence (P01854 other isoform, or with tags, fused parts or gaps): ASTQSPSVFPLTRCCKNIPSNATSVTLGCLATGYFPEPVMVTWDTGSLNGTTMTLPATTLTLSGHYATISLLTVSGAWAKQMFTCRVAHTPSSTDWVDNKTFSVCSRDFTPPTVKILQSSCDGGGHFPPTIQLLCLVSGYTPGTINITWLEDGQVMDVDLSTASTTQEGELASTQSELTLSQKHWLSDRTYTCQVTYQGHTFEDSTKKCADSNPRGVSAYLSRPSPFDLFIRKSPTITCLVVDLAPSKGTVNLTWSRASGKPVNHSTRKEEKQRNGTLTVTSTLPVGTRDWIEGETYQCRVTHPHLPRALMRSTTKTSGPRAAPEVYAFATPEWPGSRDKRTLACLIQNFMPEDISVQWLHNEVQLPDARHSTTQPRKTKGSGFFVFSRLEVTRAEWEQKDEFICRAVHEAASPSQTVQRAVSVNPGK
Procedure for human serum albumin: ELISA plate wells were coated with 0.2 μg of CD40L or 0.5 μg of HAS, and 5 μl of the monomer expression clone lysate was applied to each well. The bound monomers (which were produced as a hemagglutinin (HA) fusion) were then detected by anti-HA-HRP conjugated antibody, developed by horse-radish peroxidase enzyme activity, and read at an OD of 450 nm.

B1: recombinant human FcERI protein (receptor, UniProt P12319 26-205, looked up)
chain: VPQKPKVSLNPPWNRIFKGENVTLTCNGNNFFEVSSTKWFHNGSLSEETNSSLNIVNAKFEDSGEYKCQHQQVNESEPVYLEVFSDWLLLQASAEVVMEGQPLFLRCHGWRNWDVYKVIYYKDGEALKYWYENHNISITNATVEDSGTYYCTGKVWQLDYESEPLNITVIKAPREKYWLQ
notes: also called recombinant FcERI; recombinant soluble IgE receptor
In the test with human IgE, B1 showed a Kd of 450 nM.

B2: CD28-A10 (designed binder)
chain: CGPGRFQCESGQCVPATWVCDGDDDCADGSDEKSCATTAPTCESNQFQCGSGQCLPGTWRCDGVNDCADSSDETGCGRPGPGATSAPAACGPGRFQCNNGNCVPQTLGCDGDNDCGDSSDEANCSAPASEPPGSL
Turning to B2, the “IC50, PBMC assay on monkey cells” value in the test with CD28 on monkey PBMC came out at 7 nM.
For CNPTGKFKCRSGRCVPRESCRCDGVDDCEDNSDEKDCQPHTSLQ (designed binder, HA fusion, tested as expression lysate) [A1_34], the binding result with human serum albumin was “binds”.
